Earlier results in PMC12786138.
“And” between values parts separate entries of the source, which are not always exact repeats. Identical values can stand only once.

Columns and labels:
SIRPα (Mus musculus) = SIRPα (Mus musculus) (UniProt P97797); test: SPR
SIRPα (Homo sapiens) [1] = biological target: SIRPα (Homo sapiens) (UniProt P78324); test: SPR
CD47 (Homo sapiens) = CD47 (Homo sapiens) (UniProt Q08722); test: radiolabel competition
SIRPα (Homo sapiens) [2] = biological target: SIRPα (Homo sapiens) (UniProt P78324); test: colorimetric

CD47 ECD (from UniProt Q08722), sequence (Q08722 19-323): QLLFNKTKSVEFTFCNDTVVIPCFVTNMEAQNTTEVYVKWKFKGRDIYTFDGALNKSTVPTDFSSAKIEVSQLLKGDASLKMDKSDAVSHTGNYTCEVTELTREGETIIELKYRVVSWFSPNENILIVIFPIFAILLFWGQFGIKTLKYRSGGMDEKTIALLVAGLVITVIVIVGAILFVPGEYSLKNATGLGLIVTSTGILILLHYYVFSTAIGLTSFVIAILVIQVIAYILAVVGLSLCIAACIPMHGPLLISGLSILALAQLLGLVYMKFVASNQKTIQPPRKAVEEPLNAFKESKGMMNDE
SIRPα (Homo sapiens), sequence (P78324 31-373): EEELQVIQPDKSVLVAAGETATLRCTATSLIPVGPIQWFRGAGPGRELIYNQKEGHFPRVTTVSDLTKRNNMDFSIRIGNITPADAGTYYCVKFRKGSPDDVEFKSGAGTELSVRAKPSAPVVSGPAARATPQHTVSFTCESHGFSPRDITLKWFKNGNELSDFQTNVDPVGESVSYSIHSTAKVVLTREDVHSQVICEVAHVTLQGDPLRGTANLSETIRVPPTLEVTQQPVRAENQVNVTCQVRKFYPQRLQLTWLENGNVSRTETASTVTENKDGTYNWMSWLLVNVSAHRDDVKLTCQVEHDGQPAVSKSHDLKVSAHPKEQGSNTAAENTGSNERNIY
CD47 ECD (from UniProt Q61735), sequence (Q61735 19-303): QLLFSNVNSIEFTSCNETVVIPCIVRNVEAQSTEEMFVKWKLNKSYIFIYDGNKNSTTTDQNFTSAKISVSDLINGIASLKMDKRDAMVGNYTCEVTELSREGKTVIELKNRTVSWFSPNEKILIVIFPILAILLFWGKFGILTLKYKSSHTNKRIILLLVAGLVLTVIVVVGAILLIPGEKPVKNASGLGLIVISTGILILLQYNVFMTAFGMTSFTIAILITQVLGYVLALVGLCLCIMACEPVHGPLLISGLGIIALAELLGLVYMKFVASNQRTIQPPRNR
SIRPα (Mus musculus), sequence (P97797 32-373): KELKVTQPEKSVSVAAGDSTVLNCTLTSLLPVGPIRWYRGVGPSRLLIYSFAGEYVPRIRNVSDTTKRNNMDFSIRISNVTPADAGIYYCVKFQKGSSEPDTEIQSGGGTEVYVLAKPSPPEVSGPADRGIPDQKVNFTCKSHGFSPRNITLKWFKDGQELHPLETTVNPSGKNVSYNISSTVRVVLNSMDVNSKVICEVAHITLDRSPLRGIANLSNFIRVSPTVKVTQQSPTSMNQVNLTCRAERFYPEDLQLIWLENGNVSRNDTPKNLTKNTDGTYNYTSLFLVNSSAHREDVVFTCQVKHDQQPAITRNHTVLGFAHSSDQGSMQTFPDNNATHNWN
CD47 ECD-alkaline phosphatase ECD, sequence (Q08722 19-323): as the sequence (Q08722 19-323) above
CD47 (Homo sapiens), sequence (Q08722 19-323): as above
TSP1, sequence (P07996 19-1170): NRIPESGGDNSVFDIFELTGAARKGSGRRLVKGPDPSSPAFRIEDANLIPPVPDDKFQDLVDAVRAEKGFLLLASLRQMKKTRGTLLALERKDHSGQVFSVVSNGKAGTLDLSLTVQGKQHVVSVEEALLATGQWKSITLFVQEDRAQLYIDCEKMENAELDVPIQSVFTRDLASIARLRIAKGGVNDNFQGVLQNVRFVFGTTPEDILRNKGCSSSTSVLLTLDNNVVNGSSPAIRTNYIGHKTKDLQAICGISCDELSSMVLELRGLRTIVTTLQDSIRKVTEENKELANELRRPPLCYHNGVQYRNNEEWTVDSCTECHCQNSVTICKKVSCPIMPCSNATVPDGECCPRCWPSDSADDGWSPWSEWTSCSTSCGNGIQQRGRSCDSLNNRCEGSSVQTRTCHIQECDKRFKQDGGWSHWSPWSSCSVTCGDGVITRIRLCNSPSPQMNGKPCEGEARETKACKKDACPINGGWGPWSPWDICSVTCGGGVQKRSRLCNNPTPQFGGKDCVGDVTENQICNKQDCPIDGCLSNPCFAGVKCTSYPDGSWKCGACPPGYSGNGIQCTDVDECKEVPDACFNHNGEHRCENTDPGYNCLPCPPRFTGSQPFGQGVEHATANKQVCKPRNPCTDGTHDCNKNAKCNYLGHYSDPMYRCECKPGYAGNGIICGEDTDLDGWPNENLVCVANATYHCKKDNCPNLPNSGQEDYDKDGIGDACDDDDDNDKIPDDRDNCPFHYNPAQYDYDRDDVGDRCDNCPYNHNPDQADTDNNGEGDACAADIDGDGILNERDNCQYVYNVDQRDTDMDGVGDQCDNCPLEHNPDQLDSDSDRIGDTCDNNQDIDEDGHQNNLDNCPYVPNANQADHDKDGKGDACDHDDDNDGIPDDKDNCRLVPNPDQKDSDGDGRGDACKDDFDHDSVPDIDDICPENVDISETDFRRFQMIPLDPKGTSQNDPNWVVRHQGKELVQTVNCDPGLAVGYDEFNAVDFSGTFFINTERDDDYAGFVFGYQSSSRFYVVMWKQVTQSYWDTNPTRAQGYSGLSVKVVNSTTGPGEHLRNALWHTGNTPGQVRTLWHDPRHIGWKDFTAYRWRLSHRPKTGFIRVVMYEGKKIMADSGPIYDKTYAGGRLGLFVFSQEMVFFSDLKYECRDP

Substance | Kd (SIRPα (Mus musculus)) [nM] | Kd (SIRPα (Homo sapiens) [1]) | Kd (CD47 (Homo sapiens)) [nM] | Kd (SIRPα (Homo sapiens) [2]) [nM]
CD47 ECD (from UniProt Q61735) | 4700 | > 30000 nM | – | –
CD47 ECD (from UniProt Q08722) | 80 | 1200 nM and 1000 nM and 200 nM | – | –
TSP1 (from UniProt P07996) | – | – | 0.012 | –
CD47 ECD-alkaline phosphatase ECD (from UniProt Q08722) | – | – | – | 10
